Source: patent publication US7718626B2, “ErbB3 binding protein compositions and methods of use” (University of Maryland, Baltimore, priority 2005, dated 2010)

What was measured:
[1] = tested on: androgen-responsive genes in LNCaP cells; test: Microarray gene expression profiling of LNCaP cells stably transfected with ebp1; type: cell-based, human; conditions: ebp1-overexpressing LNCaP cells vs controls
Method: Microarray Analysis: First and second strand cDNA were synthesized from 5-15 μg of total RNA at Genome Explorations (Nashville, Tenn.) using the SuperScript Double-Stranded cDNA Synthesis Kit (Gibco Life Technologies, Gaithersburg, Md.) and an oligo-dT24-T7 (5′-GGCCAGTGAATTGTAATACGACTCACTATAGGGAGGCGG-3′) (SEQ ID NO: 3) primer according to the manufacturer's instructions. cRNA was synthesized labeled with biotinylated UTP and CTP by in vitro transcription using the T7 promoter-coupled, double-stranded cDNA as template and the T7 RNA Transcript Labeling Kit (ENZO Diagnostics Inc., Farmingdale, N.Y.). The fragmented cRNA was hybridized for U133A oligonucleotide arrays (Affymetrix, Santa Clara, Calif.) containing ˜33,000 full-length annotated genes, together with additional probe sets designed to represent EST sequences. The arrays were then stained with phycoerythrein-conjugated streptavidin (Molecular Probes, Eugene, Oreg.), and the fluorescence intensities were determined using a laser confocal scanner (Hewlett-Packard, Palo Alto, Calif.). The scanned images were analyzed using Microarray software (Affymetrix). Sample loading and variations in staining were standardized by scaling the average of the fluorescent intensities of all genes on an array to constant target intensity for all arrays used. The signal intensity for each gene was calculated as the average intensity difference, represented by [E(PM−MM)/(number of probe pairs)], where PM and MM denote perfect-match and mismatch probes. Data analysis was conducted using Microarray Suite 5.0 (Affymetrix) following user guidelines. Only genes with a minimum expression level of 500 were included in this analysis. […] AR-regulated genes include the Androgen Receptor (AR), PSA (kallikrein 3), Kallikrein 2, POV-1, TMPRSS2, and prostate-derived factor.
Ectopic expression of Ebp1 downregulates androgen-regulated genes: Gene expression profiling of LNCaP cells stably transfected with ebp1 was used to determine the range of androgen-dependent genes affected by Ebp1 overexpression. These cells overexpress Ebp1 protein between two- and three-fold (Zhang et al., 2002, Repression of Androgen Receptor Mediated Transcription by the ErbB-3 Binding Protein Ebp1, Oncogene, 21: 5609-5618). Changes in gene expression were measured using microarray analysis of 33,000 transcripts on the Affymetrix U133A chip. To compile a list of differentially regulated genes, only those genes that were activated or repressed at least 3-fold (p <0.05, 500 minimum expression units) were included. […] Forty-one genes were induced and 126 were repressed. Seventy-two of these genes have HUGO approved names. […] These include the Androgen Receptor (3.7 fold decrease), PSA (3.7 fold decrease) as previously reported (Zhang et al., 2002, Repression of Androgen Receptor Mediated Transcription by the ErbB-3 Binding Protein Ebp1, Oncogene, 21: 5609-5618), Kallikrein 2 (3.2 fold decrease), POV-1 (5.0 fold decrease), TMPRSS2 (3.2 fold decrease), and prostate-derived factor (3.2 fold decrease). The Kallikrein 2 gene is regulated by AR, predominantly expressed in prostate tissue, secreted by LNCaP cells, and 78% homologous to PSA. […] The TMPRSS2 gene is androgen-regulated and also highly expressed in prostate and prostate cancer (Afar et al., 2001, Catalytic Cleavage of the Androgen-Regulated TMPRSS2 Protease Results in its Secretion by Prostate and Prostate Cancer Epithelia, Cancer Res., 61:1686-1692).

[2] = tested on: AR-regulated gene mRNA in LNCaP cells; test: Real-time quantitative reverse-transcription PCR of LNCaP ebp1 transfectants; type: cell-based, human
Method: Real-Time Quantitative Reverse-Transcription PCR: The method of […] et al. (Nakanishi et al., 2003, Quantitative Analysis of Breast Cancer Resistance Protein and Cellular Resistance to Flavopiridol in Acute Leukemia Patients, Clin. Cancer Res., 9: 3320-3328) was used as previously described. […] Real-time quantitative RT-PCR was then performed on the LightCycler (Roche, Indianapolis, Ind.) platform to determine the relative mRNA levels of Ebp1, AR, kallikrein-2 and POV-1. The following forward and reverse primers were selected using Primer Express software and synthesized by Core Laboratory of University of Maryland School of Medicine: Ebp1, sense: […] [NT] ID NO: 6) and antisense: 5° […] ID NO: 7), Kallikrein-2, sense: [NT] ID NO: 8) and antisense: [NT] ID NO: 9), POV-1, sense: [NT] ID NO: 10) and antisense: [NT] ID NO: 11), Actin, sense: [NT] ID NO: 12) and antisense […] ID NO: 13). An SRBR Green PCR Kit was used (Applied Biosystems, Foster City, Calif.), and the analyses were performed in duplicate or triplicate in a total volume of 15 μl including 0.9 μl of 25 mM MgCl2, 1.5 μl SYBR Green I, 0.3 μl Enzyme Mix, 0.75 μl of each primer (50 ng/μl), and 2 μl of cDNA synthesized with random hexamers. Target mRNA values were normalized using actin mRNA as an internal control. The relative quantitation of gene expression was performed using the comparative ΔΔ Ct (threshold method) using β-actin as an internal control ([…] et al., 2002, The Nonsteroidal Anti-Inflammatory Drug Sulindac Causes Down-Regulation of Signal Transducer and Activator of Transcription 3 in Human Oral Squamous Cell Carcinoma Cells, Cancer Research, 62:1004-1007). The results of the microarray analysis were validated using real-time quantitative reverse-transcription PCR, Western blot, and ELISA methods. […] The expression of POV-1 mRNA and protein were each decreased about two-fold. PSA secretion in the conditioned media of ebp1 and vector control cells was assessed by ELISA. […] Finally, […]-2 mRNA expression was decreased approximately 40%.

B1: Ebp1: ErbB3 binding protein (SEQ ID NO: 2), tested by stable ectopic expression (ebp1 transfection) in LNCaP cells (protein)
chain: MSGEDEQQEQTIAEDLVVTKYKMGGDIANRVLRSLVEASSSGVSVLSLCEKGDAMIMEETGKIFKKEKEMKKGIAFPTSISVNNCVCHFSPLKSDQDYILKEGDLVKIDLGVHVDGFIANVAHTFVVDVAQGTQVTGRKADVIKAAHLCAEAALRLVKPGNQNTQVTEAWNKVAHSFNCTPIEGMLSHQLKQHVIDGEKTIIQNPTDQQKKDHEKAEFEVHEVYAVDVLVSSGEGKAKDAGQRTTIYKRDPSKQYGLKMKTSRAFFSEVERRFDAMPFTLRAFEDEKKARMGVVECAKHELLQPFNVLYEKEGEFVAQFKFTVLLMPNGPMRITSGPFEPDLYKSEMEVQDAELKALLQSSASRKTQKKKKKKASKTAENPTSGETLEENEAGD
modifications: Homo Sapien
Androgen Receptor expression, fold decrease [1]: 3.7 fold decrease | Kallikrein 2 expression, fold decrease [1]: 3.2 fold decrease | POV-1 expression, fold decrease [1]: 5.0 fold decrease | PSA expression, fold decrease [1]: 3.7 fold decrease | TMPRSS2 expression, fold decrease [1]: 3.2 fold decrease | prostate-derived factor expression, fold decrease [1]: 3.2 fold decrease | POV-1 mRNA decrease [2]: about two-fold | kallikirein-2 mRNA expression decrease [2]: approximately 40% | AR mRNA down-regulation ([2]; real-time PCR): more than 2 fold
